Results as given in the supplement of paper PMC10126150.
± gives the standard deviation of the averaged measurements.

System: ATP
Test: switch fluorescence ratio, 500 uM ATP over buffer (Cy3 cluster intensity, sum of 5 cycles each) (fold (ratio)); higher = stronger signal-on switching upon ATP binding; sequences stand for … in TCGTCGGCAGCGTCAGATGTGTATAAGAGACAGTTTTTTTTTTTTTTTTTTTTTTTTT…TC
Settings: aptamer strand: ATP DNA aptamer (quencher-CACCTGGGGGAGTATTGCGGAGGAAGG + anchor), 100 nM annealed; ATP concentration: 500 uM
Outline: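 Cy3-labelled switching-strand clusters on a modified Illumina MiSeq flow-cell were annealed to 100 nM quencher-labelled ATP aptamer and imaged first in selection buffer, then after 15 min with 500 uM ATP at 22 °C. NaOH stripping and re-annealing separated each of five buffer/ATP cycles, and clusters outside 100-1000 RFU were excluded. The fluorescence ratio sums target-cycle Cy3 intensity over buffer-cycle Cy3 intensity per cluster and averages it per switch-domain sequence.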
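Note: ATP exposure 15 min at 22 °C before imaging.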

Sequence | switch fluorescence ratio
TATGTGTTTC | 1.18 ± 0.25
TATGTTACCT | 1.22 ± 0.05
TATGTTGAGG | 1 ± 0.035
TATGTTTATC | 0.975 ± 0.055
TATTAAAATT | 1.008 ± 0.0077
TATTAAACGA | 1.019 ± 0.0063
TATTAAAGAC | 1.04 ± 0.1
TATTAAATTC | 0.984 ± 0.039
TATTAATAGT | 1.01 ± 0.024
TATTACAAGT | 1.01 ± 0.015
TATTACCGTT | 1.006 ± 0.0076
TATTACTCAG | 1.03 ± 0.025
TATTAGGGAC | 0.994 ± 0.032
TATTAGGGCA | 0.9717 ± 0.0097
TATTAGGGTC | 1.02 ± 0.02
TATTAGGTGT | 1.04 ± 0.04
TATTAGGTTT | 0.991 ± 0.018
TATTAGTATG | 0.991 ± 0.047
TATTATACCT | 1.29 ± 0.053
TATTATTTGG | 1 ± 0.034
TATTCAATGG | 1.02 ± 0.074
TATTCAGAAA | 1.02 ± 0.054
TATTCAGAGG | 0.974 ± 0.02
TATTCAGGCA | 1.01 ± 0.041
TATTCGCTTT | 1.33 ± 0.48

Sequence | switch fluorescence ratio
TATTCTGGAT | 0.993 ± 0.026
TATTCTGGGA | 0.9918 ± 0.0078
TATTGAAGGT | 1.026 ± 0.0075
TATTGAGACT | 0.989 ± 0.004
TATTGAGAGC | 1.01 ± 0.064
TATTGCTACT | 1.0114 ± 6.4e-05
TATTGGAACG | 0.99979 ± 0.0003
TATTGGCAGA | 1.008 ± 0.01
TATTGGCGCT | 0.984 ± 0.018
TATTGGGCGG | 1.01 ± 0.045
TATTGGGCTA | 0.993 ± 0.044
TATTGGGTTT | 0.996 ± 0.022
TATTGGTAAA | 0.997 ± 0.036
TATTGGTAGC | 0.984 ± 0.025
TATTGGTATG | 1 ± 0.017
TATTGGTCGG | 0.993 ± 0.036
TATTGGTTTT | 1 ± 0.011
TATTGTGAGT | 0.996 ± 0.057
TATTGTGGGG | 1 ± 0.044
TATTGTGTTC | 0.9965 ± 0.0035
TATTGTTAGG | 1.01 ± 0.027
TATTTAAAGG | 0.986 ± 0.02
TATTTAACAC | 1.1 ± 0.12
TATTTAATAG | 1.004 ± 0.0028
TATTTAGGGC | 1.04 ± 0.052

Sequence | switch fluorescence ratio
TATTTATAAG | 0.96 ± 0.015
TATTTATGCG | 1.021 ± 0.0091
TATTTATTGG | 0.999 ± 0.012
TATTTATTTT | 1.01 ± 0.03
TATTTCATGT | 1.02 ± 0.044
TATTTCATTC | 1.03 ± 0.041
TATTTCGGGT | 1.01 ± 0.068
TATTTCTGCT | 1.04 ± 0.033
TATTTCTGTA | 1.03 ± 0.019
TATTTCTTTG | 0.979 ± 0.055
TATTTGAAGT | 0.9885 ± 0.0028
TATTTGAGTC | 0.972 ± 0.021
TATTTGCTGT | 1.001 ± 0.001
TATTTGGGAT | 1 ± 0.002
TATTTGGGGT | 0.999 ± 0.027
TATTTGGTTA | 1.024 ± 0.006
TATTTTAGTT | 1.02 ± 0.023
TATTTTATGG | 0.998 ± 0.025
TATTTTATTT | 1 ± 0.018
TATTTTCACT | 1.05 ± 0.11
TATTTTCAGA | 1.04 ± 0.014
TATTTTGCGG | 0.987 ± 0.035
TATTTTGTGC | 1.02 ± 0.012
TATTTTTAGC | 1 ± 0.03
TATTTTTCAG | 1.03 ± 0.015

Sequence | switch fluorescence ratio
TATTTTTTA | 1.019 ± 0.0089
TCAAAAAATG | 1.01 ± 0.042
TCAAAATTAT | 1.02 ± 0.043
TCAAAATTGG | 1.004 ± 0.0082
TCAAACGCTT | 1.12 ± 0.15
TCAAAGCGTT | 0.986 ± 0.031
TCAAAGTCGA | 0.976 ± 0.045
TCAAATAATC | 1.01 ± 0.03
TCAAATCCTG | 1.05 ± 0.047
TCAAATGAAT | 0.994 ± 0.05
TCAAATGTGC | 1.02 ± 0.033
TCAAATTTTT | 0.998 ± 0.045
TCAACGAAGA | 1.01 ± 0.018
TCAACTTTTG | 0.9856 ± 0.0022
TCAAGAGTTC | 1.01 ± 0.06
TCAAGGCGAT | 1.09 ± 0.042
TCAAGGGGAG | 1.06 ± 0.067
TCAAGGTATT | 1 ± 0.034
TCAAGGTGGG | 0.998 ± 0.021
TCAAGTGCTT | 0.9688 ± 0.0071
TCAAGTTAGT | 0.985 ± 0.026
TCAAGTTCTT | 1.03 ± 0.031
TCAAGTTGGC | 0.998 ± 0.09
TCAATAAAGT | 0.961 ± 0.014
TCAATAATGA | 1.02 ± 0.027

Sequence | switch fluorescence ratio
TCAATAGCCG | 1.12 ± 0.14
TCAATGATAT | 1.02 ± 0.019
TCAATGGGCT | 0.9899 ± 0.0092
TCAATGTGGC | 1.04 ± 0.036
TCAATGTGTC | 1.03 ± 0.12
TCAATGTTGG | 0.988 ± 0.025
TCAATTCGGC | 0.991 ± 0.025
TCAATTTCGG | 0.99882 ± 0.00079
TCAATTTTTA | 1.02 ± 0.02
TCACAATTTT | 1.08 ± 0.097
TCACAGGATA | 1.021 ± 0.0056
TCACATGTCG | 1.02 ± 0.053
TCACCGACTA | 1.1952 ± 0.00033
TCACCGATTC | 1.11 ± 0.024
TCACCGTTCT | 1.03 ± 0.032
TCACGATTTA | 0.99 ± 0.057
TCACGGGGCT | 1.01 ± 0.068
TCACTATAGG | 1.02 ± 0.036
TCACTCCTTT | 1.01 ± 0.019
TCACTGGGTC | 1.05 ± 0.023
TCAGAAGGGG | 0.995 ± 0.0085
TCAGAAGTAA | 1.317 ± 0.0066
TCAGAATTGG | 1.01 ± 0.028
TCAGACACGG | 1.04 ± 0.039
TCAGAGGAG | 1.01 ± 0.025

Sequence | switch fluorescence ratio
TCAGAGGGAA | 1.07 ± 0.1
TCAGAGGGGC | 0.9913 ± 0.0095
TCAGATAGCG | 0.98 ± 0.043
TCAGCCAGC | 1.06 ± 0.012
TCAGCGCTTT | 0.977 ± 0.032
TCAGCTGGGA | 1 ± 0.026
TCAGGAATGG | 1.055 ± 0.0069
TCAGGACGGG | 0.992 ± 0.02
TCAGGGAGGT | 0.989 ± 0.051
TCAGGGGCGT | 1.0041 ± 0.00072
TCAGGGGTGT | 1.08 ± 0.024
TCAGGTAGCG | 1.004 ± 0.0061
TCAGGTGAAT | 1.32 ± 0.065
TCAGGTGGGG | 1.07 ± 0.046
TCAGGTTAAG | 0.9954 ± 0.0061
TCAGGTTTCC | 1.0249 ± 0.00069
TCAGTACGCA | 1.57 ± 0.095
TCAGTAGAGA | 0.995 ± 0.018
TCAGTAGCGG | 1.07 ± 0.1
TCAGTAGGGA | 2.94 ± 2.8
TCAGTCATTT | 1.003 ± 0.0066
TCAGTGCGGG | 0.98 ± 0.047
TCAGTGGACG | 0.996 ± 0.072
TCAGTGTGCT | 0.98 ± 0.014
TCAGTGTGTT | 1.02 ± 0.038

Sequence | switch fluorescence ratio
TCAGTTAAGG | 0.9866 ± 0.0039
TCAGTTATGG | 1.001 ± 0.0086
TCAGTTCGGC | 0.976 ± 0.037
TCAGTTTAGA | 1 ± 0.011
TCAGTTTTGT | 1.012 ± 0.0094
TCATAAAGTT | 0.994 ± 0.034
TCATACTGTG | 1.03 ± 0.014
TCATAGAGG | 0.9822 ± 0.0058
TCATAGGGGC | 1.04 ± 0.012
TCATATTTAA | 1.015 ± 0.0043
TCATCAGGGC | 1.08 ± 0.034
TCATCATTCG | 0.9668 ± 0.0052
TCATCGGCAT | 4.07 ± 1.3
TCATCGGGGA | 1.01 ± 0.028
TCATCTATAT | 1.03 ± 0.028
TCATCTGTGC | 1.07 ± 0.029
TCATGAACAG | 0.993 ± 0.014
TCATGACGT | 0.9921 ± 0.0037
TCATGAGTTG | 0.963 ± 0.018
TCATGCACTG | 1.05 ± 0.035
TCATGCGAAA | 1.1 ± 0.013
TCATGCGGGC | 1.02 ± 0.038
TCATGCTTGA | 0.974 ± 0.032
TCATGCTTTT | 1.03 ± 0.019
TCATGGCGTG | 0.988 ± 0.011

Sequence | switch fluorescence ratio
TCATGGTATG | 0.997 ± 0.024
TCATGTAAGT | 0.997 ± 0.02
TCATGTAGGG | 0.989 ± 0.015
TCATGTCGGG | 1.005 ± 0.01
TCATGTCGGT | 0.979 ± 0.017
TCATGTTCGT | 1.08 ± 0.15
TCATGTTGAT | 1 ± 0.071
TCATGTTGTG | 1.01 ± 0.02
TCATGTTTCG | 1 ± 0.031
TCATTATGCA | 1.04 ± 0.018
TCATTATGGA | 0.989 ± 0.014
TCATTCATGG | 0.977 ± 0.011
TCATTGAGCG | 0.981 ± 0.04
TCATTGAGGA | 0.992 ± 0.014
TCATTGTGGG | 0.9799 ± 0.00084
TCATTGTGGT | 0.988 ± 0.018
TCATTGTTCG | 0.958 ± 0.0035
TCATTTTTAC | 1.049 ± 0.0072
TCCAAACCCC | 1.12 ± 0.046
TCCAACATTT | 1 ± 0.046
TCCAATTTTT | 0.986 ± 0.024
TCCACATTCC | 1.57 ± 0.35
TCCAGAGTGC | 1.017 ± 0.0033
TCCAGCGGGG | 1.01 ± 0.047
TCCAGCTGA | 2.688 ± 0.015
